Reference: the Immune Epitope Database (IEDB)

Assays:
HLA-A*02:02 = assay: IEDB peptide-MHC binding, purified MHC/competitive/radioactivity; ≥ and ≤ were set here for values at or beyond the usual limits of such assays
HLA-A*02:03 = assay: as above
HLA-A*02:06 = assay: as above
HLA-A*68:02 = assay: as above
HLA-A*02:01 [1] = assay: IEDB peptide-MHC binding, cellular MHC/competitive/fluorescence; ≥ and ≤ were set here for values at or beyond the usual limits of such assays; settings: source organism: Vaccinia virus WR
HLA-A*02:01 [2] = assay: IEDB peptide-MHC binding, purified MHC/competitive/radioactivity; ≥ and ≤ were set here for values at or beyond the usual limits of such assays; settings: source organism: Vaccinia virus WR
[3] = source organism: Influenza A virus
[4] = source organism: Vaccinia virus WR
[5] = source organism: Hepacivirus hominis

FNMLSTVLGV
IC50 (HLA-A*02:02; [3]): 16 nM | IC50 (HLA-A*02:03; [3]): 11 nM | IC50 (HLA-A*02:06; [3]): 31 nM | IC50 (HLA-A*68:02; [3]): 860 nM

RIEDMFLTSV
IC50 (HLA-A*02:02; [4]): 548 nM | IC50 (HLA-A*02:03; [4]): 71 nM | IC50 (HLA-A*02:06; [4]): 168 nM | IC50 (HLA-A*68:02; [4]): 1430 nM

MLYQLLEAV
IC50 (HLA-A*02:01 [1]): 14.9 µM | IC50 (HLA-A*02:01 [2]): 8.2 nM

IIGHIGHHYI
IC50 (HLA-A*02:02; [4]): 400 nM | IC50 (HLA-A*02:03; [4]): 186 nM | IC50 (HLA-A*02:06; [4]): 1350 nM | IC50 (HLA-A*68:02; [4]): 222 nM

RLWHYPCTV
IC50 (HLA-A*02:02; [5]): 165 nM | IC50 (HLA-A*02:03; [5]): 17 nM | IC50 (HLA-A*02:06; [5]): 131 nM | IC50 (HLA-A*68:02; [5]): 4310 nM

FISGIQYLA
IC50 (HLA-A*02:02; [5]): 8.6 nM | IC50 (HLA-A*02:03; [5]): 832 nM | IC50 (HLA-A*02:06; [5]): 1340 nM | IC50 (HLA-A*68:02; [5]): 12 nM

FLNRFTTTL
IC50 (HLA-A*02:02; source organism: SARS-CoV1): 0.66 nM | IC50 (HLA-A*02:03; source organism: SARS-CoV1): 1 nM | IC50 (HLA-A*02:06; source organism: SARS-CoV1): 58 nM | IC50 (HLA-A*68:02; source organism: SARS-CoV1): 286 nM

KLRSSPPIPM
IC50 (HLA-A*02:02; [4]): 58 nM | IC50 (HLA-A*02:03; [4]): 134 nM | IC50 (HLA-A*02:06; [4]): 2210 nM | IC50 (HLA-A*68:02; [4]): 4280 nM

FTYASALWEI
IC50 (HLA-A*02:02; source organism: SARS-CoV1): 1.6 nM | IC50 (HLA-A*02:03; source organism: SARS-CoV1): 6 nM | IC50 (HLA-A*02:06; source organism: SARS-CoV1): 2.5 nM | IC50 (HLA-A*68:02; source organism: SARS-CoV1): 1.7 nM

TLMNVITLV
IC50 (HLA-A*02:02; source organism: SARS-CoV1): 0.34 nM | IC50 (HLA-A*02:03; source organism: SARS-CoV1): 0.25 nM | IC50 (HLA-A*02:06; source organism: SARS-CoV1): 0.7 nM | IC50 (HLA-A*68:02; source organism: SARS-CoV1): 13 nM

FLLVTLAIL
IC50 (HLA-A*02:02; source organism: SARS-CoV1): 0.64 nM | IC50 (HLA-A*02:03; source organism: SARS-CoV1): 0.97 nM | IC50 (HLA-A*02:06; source organism: SARS-CoV1): 0.48 nM | IC50 (HLA-A*68:02; source organism: SARS-CoV1): 1900 nM

KTIAVSVYGA
IC50 (HLA-A*02:02; [4]): 366 nM | IC50 (HLA-A*02:03; [4]): 224 nM | IC50 (HLA-A*02:06; [4]): 427 nM | IC50 (HLA-A*68:02; [4]): 235 nM

SMWALVISV
IC50 (HLA-A*02:02; source organism: SARS-CoV1): 6.1 nM | IC50 (HLA-A*02:03; source organism: SARS-CoV1): 4.4 nM | IC50 (HLA-A*02:06; source organism: SARS-CoV1): 0.79 nM | IC50 (HLA-A*68:02; source organism: SARS-CoV1): 252 nM

TLLCVLAAL
IC50 (HLA-A*02:02; source organism: SARS-CoV1): 8.1 nM | IC50 (HLA-A*02:03; source organism: SARS-CoV1): 11 nM | IC50 (HLA-A*02:06; source organism: SARS-CoV1): 8 nM | IC50 (HLA-A*68:02; source organism: SARS-CoV1): 431 nM

VLAWLYAAV
IC50 (HLA-A*02:02; source organism: SARS-CoV1): 0.097 nM | IC50 (HLA-A*02:03; source organism: SARS-CoV1): 0.31 nM | IC50 (HLA-A*02:06; source organism: SARS-CoV1): 8.8 nM | IC50 (HLA-A*68:02; source organism: SARS-CoV1): 37 nM

QMWKCLIRL
IC50 (HLA-A*02:02; [5]): 175 nM | IC50 (HLA-A*02:03; [5]): 317 nM | IC50 (HLA-A*02:06; [5]): 218 nM | IC50 (HLA-A*68:02; [5]): 3230 nM

FLITGVFDI
IC50 (HLA-A*02:02; source organism: SARS-CoV1): 0.69 nM | IC50 (HLA-A*02:03; source organism: SARS-CoV1): 0.76 nM | IC50 (HLA-A*02:06; source organism: SARS-CoV1): 1.5 nM | IC50 (HLA-A*68:02; source organism: SARS-CoV1): 62 nM

SMHFYGWSL
IC50 (HLA-A*02:01 [2]): 192 nM | IC50 (HLA-A*02:06; [4]): 383 nM | IC50 (HLA-A*68:02; [4]): 11 nM

SINVDSTDEL
IC50 (HLA-A*02:01 [1]): 60.3 µM

HLATPINSRI
IC50 (HLA-A*02:01 [1]): 7.9 µM

LAGYILTVL
IC50 (HLA-A*02:01 [1]): 11.6 µM

PTLDNILGIL
IC50 (HLA-A*02:01 [1]): 63.7 µM

IIRQRNDEI
IC50 (HLA-A*02:01 [1]): 52.8 µM

VMETDRENA
IC50 (HLA-A*02:01 [1]): 8.08 µM

IVDDDFISA
IC50 (HLA-A*02:01 [1]): 11.5 µM

IQGKNKRKRV
IC50 (HLA-A*02:01 [1]): ≥ 70 µM

PIYYVQKQLV
IC50 (HLA-A*02:01 [1]): 18.7 µM

IINRDIIVI
IC50 (HLA-A*02:01 [1]): 10.8 µM

LTKIDTTHV
IC50 (HLA-A*02:01 [1]): 14 µM

KVTINNLKMM
IC50 (HLA-A*02:01 [1]): 35.7 µM

EVFINDNGIM
IC50 (HLA-A*02:01 [1]): ≥ 70 µM

IMSLNGKKHT
IC50 (HLA-A*02:01 [1]): ≥ 70 µM

LVVSTKGDV
IC50 (HLA-A*02:01 [1]): 25.8 µM

EVVVFGEAV
IC50 (HLA-A*02:01 [1]): 13.4 µM

VAVAAASST
IC50 (HLA-A*02:01 [1]): 13.5 µM

MQHPREENSI
IC50 (HLA-A*02:01 [1]): 27.4 µM

STAVNEEWLT
IC50 (HLA-A*02:01 [1]): 25.4 µM

EIPTRTLDTA
IC50 (HLA-A*02:01 [1]): 59 µM

LAIDFGNGA
IC50 (HLA-A*02:01 [1]): 46.6 µM

LVITKLREHM
IC50 (HLA-A*02:01 [1]): ≥ 70 µM

DILANRDSTL
IC50 (HLA-A*02:01 [1]): 34.5 µM

ELKTQSPDVL
IC50 (HLA-A*02:01 [1]): 61 µM

DIVSKLTFL
IC50 (HLA-A*02:01 [1]): 7.81 µM

TLQKVLHVT
IC50 (HLA-A*02:01 [1]): 5.79 µM

YASIINRDII
IC50 (HLA-A*02:01 [1]): 7.11 µM

QQHPIVVLDA
IC50 (HLA-A*02:01 [1]): 14.5 µM

YTRPEIDVL
IC50 (HLA-A*02:02; [4]): 115 nM | IC50 (HLA-A*02:03; [4]): 74 nM | IC50 (HLA-A*02:06; [4]): 154 nM | IC50 (HLA-A*68:02; [4]): 528 nM

DMIHNVIDDV
IC50 (HLA-A*02:01 [1]): 19.8 µM

LIRPKILSM
IC50 (HLA-A*02:01 [1]): ≥ 70 µM

DLFPKQTIQT
IC50 (HLA-A*02:01 [1]): 12.9 µM

IVRDMLVNRM
IC50 (HLA-A*02:01 [1]): 14.4 µM

DACKKILSA
IC50 (HLA-A*02:01 [1]): 14.4 µM

LIAFSSGTVI
IC50 (HLA-A*02:01 [1]): 7.63 µM

NIKNDVVIL
IC50 (HLA-A*02:01 [1]): ≥ 70 µM

SIPKETNELT
IC50 (HLA-A*02:01 [1]): ≥ 70 µM

TIKCSNLCT
IC50 (HLA-A*02:01 [1]): 8.78 µM

TVPTMNNAKL
IC50 (HLA-A*02:01 [1]): 41.7 µM

ELVFIKPPL
IC50 (HLA-A*02:01 [1]): 28 µM

LITSAFDLL
IC50 (HLA-A*02:01 [1]): 30.3 µM

NTSLEIEFT
IC50 (HLA-A*02:01 [1]): ≥ 70 µM

PVKRIIDSEV
IC50 (HLA-A*02:01 [1]): 33.8 µM

NAKCIEYVT
IC50 (HLA-A*02:01 [1]): ≥ 70 µM

NTCLRCSKL
IC50 (HLA-A*02:01 [1]): 24.6 µM

VTNKEGVKI
IC50 (HLA-A*02:01 [1]): 57.4 µM

TVTNLISET
IC50 (HLA-A*02:01 [1]): 31.1 µM

TISMLIEVIL
IC50 (HLA-A*02:01 [1]): ≥ 70 µM

IVALTIMGVI
IC50 (HLA-A*02:01 [1]): 5.77 µM

TLSLSKQDI
IC50 (HLA-A*02:01 [1]): 11.7 µM

AIDFGNGADL
IC50 (HLA-A*02:01 [1]): 46.8 µM

LITTMDGDKL
IC50 (HLA-A*02:01 [1]): ≥ 70 µM

KALSDACKKI
IC50 (HLA-A*02:01 [1]): 14.3 µM

VARRKDQTA
IC50 (HLA-A*02:01 [1]): 37.7 µM

AAITDAAVA
IC50 (HLA-A*02:01 [1]): 18.6 µM

GAIYKLGSSI
IC50 (HLA-A*02:01 [1]): 36.6 µM

AIFTDASTVA
IC50 (HLA-A*02:01 [1]): 18.5 µM

ILSIVGFRPT
IC50 (HLA-A*02:01 [1]): 38.1 µM

RIKIDKLRQI
IC50 (HLA-A*02:01 [1]): ≥ 70 µM

DTFVSSVREV
IC50 (HLA-A*02:01 [1]): 5.08 µM

TTSDYQDSDV
IC50 (HLA-A*02:01 [1]): 11.9 µM
